{"source": "paper PMC10053881", "about": "(Pharmaceutics, 2023)", "experiment": "Biodistribution in SCID mice bearing twin HEK293-SST2R and wtHEK293 tumors", "conditions": "male, mouse, iv, total radioactivity, In-111 radioligands, iv 20–25 pmol, mean ± sd, n = 4; for tissue uptake at 4 h: 4 h pi; for tissue uptake at 24 h: 24 h pi", "protocol": "Freshly harvested HEK293-SST2R cells (1.2 × 10^7cells) and wtHEK293 cells (0.6 × 10^7 cells) were suspended in physiological saline (150 μL) and inoculated in the right and left flanks, respectively, of 43 male SCID mice (23.1 ± 1.6 g body weight, six weeks of age on arrival day; NCSR “Demokritos” Animal House, Athens, Greece). Mice were kept under aseptic conditions for 12–15 days and until palpable tumors (300–600 mg) were grown at the inoculation sites. […] Animals were euthanized at 4 and 24 h pi and immediately dissected. Blood samples, organs of interest and tumors were rapidly collected, weighed and counted in the gamma counter. […] Animals were euthanized at 4, 24 and 48 h pi and the procedure described above was followed. Biodistribution data were calculated with the aid of suitable standards of the administered dose as percent of the injected activity per gram tissue (%IA/g) with excel software (Microsoft Corporation, Redmond, Washington, […], USA). Results were provided as average ± sd values, n = 4 per time point, via the PRISM^TM 6.0 GraphPad software (San Diego, CA, USA). Statistical analysis was performed as previously described.", "key": {"[1]": {"conditions": "in vivo, Tu+ (HEK293-SST2R tumor) uptake"}}, "note": "Bridge positions count the residues as written; N and C are the ends. Square brackets hold non-standard residues; d marks the D form. Peptide text beside a SMILES is read from it. * marks the point of attachment. DOTA = O=C(O)CN1CCN(CC(=O)O)CCN(CC(=O)*)CCN(CC(=O)O)CC1; dPhe(4-NHCONH2) = NC(=O)Nc1ccc(C[C@@H](N)C(=O)O)cc1; Phe(4-Cl) = N[C@@H](Cc1ccc(Cl)cc1)C(=O)O"}
{"smiles": "C[C@@H](O)[C@@H]1NC(=O)[C@H](CCCCN)NC(=O)[C@@H](Cc2ccc(NC(N)=O)cc2)NC(=O)[C@H](Cc2ccc(O)cc2)NC(=O)[C@H](NC(=O)[C@H](Cc2ccc(Cl)cc2)NC(=O)CN2CCN(CC(=O)O)CCN(CC(=O)O)CCN(CC(=O)O)CC2)CSSC[C@@H](C(=O)N[C@H](Cc2ccc(O)cc2)C(N)=O)NC1=O", "note": "[[^111In]In-DOTA-LM3, metal not drawn] ({DOTA}-[Phe(4-Cl)][dC]Y[dPhe(4-NHCONH2)]KTC[dY]-NH2; disulfide 2-7)", "values": [{"measurement": "tissue uptake at 4 h", "setting": "[1]", "value": "36.4 ± 2.05", "unit": "%ID/g"}, {"measurement": "tissue uptake at 24 h", "setting": "[1]", "value": "20.9 ± 3.02", "unit": "%ID/g"}, {"measurement": "tissue uptake at 24 h", "setting": "in vivo, Tu- (wtHEK293 tumor) uptake", "value": "0.29 ± 0.01", "unit": "%ID/g"}, {"measurement": "tissue uptake at 4 h", "setting": "kidneys, Kidneys uptake", "value": "15.4 ± 0.58", "unit": "%ID/g"}, {"measurement": "tissue uptake at 24 h", "setting": "kidneys, Kidneys uptake", "value": "4.25 ± 0.77", "unit": "%ID/g"}, {"measurement": "tissue uptake at 4 h", "setting": "liver, Liver uptake", "value": "2.04 ± 0.25", "unit": "%ID/g"}, {"measurement": "tissue uptake at 24 h", "setting": "liver, Liver uptake", "value": "0.58 ± 0.06", "unit": "%ID/g"}, {"measurement": "tissue uptake at 4 h", "setting": "lungs, Lungs uptake", "value": "3.14 ± 0.48", "unit": "%ID/g"}, {"measurement": "tissue uptake at 24 h", "setting": "lungs, Lungs uptake", "value": "0.59 ± 0.12", "unit": "%ID/g"}, {"measurement": "tissue uptake at 4 h", "setting": "muscle, Muscle uptake", "value": "0.08 ± 0.01", "unit": "%ID/g"}, {"measurement": "tissue uptake at 24 h", "setting": "muscle, Muscle uptake", "value": "0.04 ± 0.02", "unit": "%ID/g"}, {"measurement": "tissue uptake at 4 h", "setting": "pancreas, Pancreas uptake", "value": "9.94 ± 0.79", "unit": "%ID/g"}, {"measurement": "tissue uptake at 24 h", "setting": "pancreas, Pancreas uptake", "value": "1.2 ± 0.14", "unit": "%ID/g"}, {"measurement": "tissue uptake at 4 h", "setting": "spleen, Spleen uptake", "value": "0.46 ± 0.05", "unit": "%ID/g"}, {"measurement": "tissue uptake at 24 h", "setting": "spleen, Spleen uptake", "value": "0.27 ± 0.03", "unit": "%ID/g"}, {"measurement": "tissue uptake at 4 h", "setting": "stomach, Stomach uptake", "value": "0.8 ± 0.17", "unit": "%ID/g"}, {"measurement": "tissue uptake at 24 h", "setting": "stomach, Stomach uptake", "value": "0.5 ± 0.09", "unit": "%ID/g"}]}
